Data as given in patent US20230025707A1.

Tests used:
[1] = target: Lewy body α-Synuclein (human) (UniProt P37840); assay: IHC, human amygdala; OD of Lewy bodies / OD of tissue
[2] = target: human α-Synuclein pre-formed fibrils (human) (UniProt P37840); assay: cell-based or functional assay

Substance	LB Discrimination Index [1]	% Inhibition (primary neuron assay) [2] [%]
Syn303 (antibody)	2.1	
IgG (antibody)		0
Syn211 (antibody)		94.7
